Measured values taken from patent publication CN116745314A (VIR BIOTECHNOLOGY CO LTD, dated 2023).

Target: spike glycoprotein of live SARS-CoV-2 (isolate USA-WA1/2020) (SARS-CoV-2, UniProt P0DTC2 14-1273)
Assay: cell-based or functional assay

B1: S2E12 (antibody, V domains shown)
VH: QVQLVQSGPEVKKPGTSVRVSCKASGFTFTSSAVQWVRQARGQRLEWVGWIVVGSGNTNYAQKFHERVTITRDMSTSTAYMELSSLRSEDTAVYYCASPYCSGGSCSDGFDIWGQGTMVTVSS
VL: DIVLTQTPGTLSLSPGERATLSCRASQSVSSSYLAWYQQKPGQAPRLLIYGASSRATGIPDRFSGSGSGTDFTLTISRLEPEDFAVYYCQQYVGLTGWTFGQGTKVEIK
EC50 (live SARS-CoV-2 neutralisation): 5 ng/mL | IC50 (live SARS-CoV-2 neutralisation): 5.41 ng/mL
